Results on eleven molecules are retold here after PMC4320081.

The labels stand for the following.
B1: TsalNb-5-HRP (VHH)
VHH: QVQLQESGGGLVQPGGSLRLSCAGSGLTLDYYAMGWYRQAPGKQREGVSCITSSGGRTNYADSVKGRFTISRDNAKNTVSLQMNSLKPEDTAVYYCAATEWLAGTKCLLSHEYDYWGQGTQVTVSS
B2: TsalNb-11-HRP (VHH)
VHH: QVQLQESGGGLVQPGESLRLSCAASEFTLDYYAMAWYRQAPGKQREGVSCITSSGGRTNYADSVKGRFTISRENGKNTVYLQMSSLKPGDTAVYYCAATEWLAGTKCLGSHEYDYWGQGTQVTVSS
B3: TsalNb-1 (VHH)
VHH: QVQLQESGGGLVQVGGSLRLSCTASGSIFSINYANWYRQAPGKQRELVAGITSDGSTNYADSVKGRFTISRDNAKNTVYLQMNRLTPEDTAVYYCKPRAWLTGRWENYWGQGTQVTVSS
B4: TsalNb-3 (VHH)
VHH: QVQLQESGGGLVQVGGSLRLSCAVSGSIFSNNYMGWYRQAPGKQRELVAGITSGGSTNYADSVKGRFTISRDNAKNTVYLQMNSLLPEDTAVYYCKPRGWLTGRWENYWGQGTQVTVSS
B5: TsalNb-4 (VHH)
VHH: QVQLQESGGGLVQVGGSLRLSCTASGSIFSINYAGWYRQAPGKQRELVAGITSGGSTNYADSVKGRFTISRDSAKNTVYLQMNSLKAEDTAVYYCKPRAWLTGRWENYWGQGTQVTVSS
B6: TsalNb-12 (VHH)
VHH: QVQLQESGGGLVQPGGSLRLSCTASGSIFSINYANWYRQAPGKQRELVAGITSDGSTNYADSVKGRFTISRDNAKNTVYLQMNRLTPEDTAVYYCKPRAWLTGRWENYWGQGTQVTVSS
B7: TsalNb-10 (VHH)
VHH: QVQLQESGGGLVQVGGSLRLSCAASGSIFSNNYMGWYRQAPGKQRELVAGITSGGSTNYADSVKGRFTISRDNAKNTVYLQMNNLKPEDTAVYNCKPRGWLTGRWENYWGQGTQVTVSS
B8: TsalNb-2 (VHH)
VHH: QVQLQESGGGLVQVGGSLRLSCQASGSIFSNSYMGWYRQAPGKQRELVAGITSGGSTNYADSVKGRFTISRDNAKNTVYLQMNSLKPEDTAVYYCKPRAWLTGRWENYWGQGTQVTVSS
B9: TsalNb-5 (VHH)
VHH: QVQLQESGGGLVQPGGSLRLSCAGSGLTLDYYAMGWYRQAPGKQREGVSCITSSGGRTNYADSVKGRFTISRDNAKNTVSLQMNSLKPEDTAVYYCAATEWLAGTKCLLSHEYDYWGQGTQVTVSS
B10: TsalNb-8 (VHH)
VHH: QVQLQESGGGLVQPGGSLRLSCAASVLTLDYYAMAWYRQAPGKQREGVSCITSSGGRTNYADSVKGRFTISRDNAKNMVYLQMNSLKPEDTAVYYCAATEWLAGTKCLSSHEYDYWGQGTQVTVSS
B11: TsalNb-11 (VHH)
VHH: QVQLQESGGGLVQPGESLRLSCAASEFTLDYYAMAWYRQAPGKQREGVSCITSSGGRTNYADSVKGRFTISRENGKNTVYLQMSSLKPGDTAVYYCAATEWLAGTKCLGSHEYDYWGQGTQVTVSS

The target of one experiment is native Tsal proteins in G. m. morsitans saliva (Glossina morsitans morsitans (endogenous in saliva)). The experiment is described as follows: ELISA; competitive ELISA: 250 ng G. m. morsitans saliva coated per well, plasma (immune, naive or control) applied 1 h, then HRP-conjugated Nb (1:160 or 1:320) 1 h; ABTS, O.D. 405 nm. A general note: In an ELISA, binding on a coated surface is turned into a signal by an enzyme label.
Take B1: the mean endpoint O.D.405nm of controls (control mouse plasma) was 2.26 O.D._(405nm) and the mean endpoint O.D.405nm of controls (control porcine plasma) is 2.31 O.D._(405nm).
For B2 the same measures were 2.35 O.D._(405nm) and 2.24 O.D._(405nm).

The target is the same in another experiment. The experiment is described as above. The source holds these as a separate data set.
Turning to B1, the mean endpoint O.D.405nm of controls (control porcine plasma) was 2.23 O.D._(405nm).
B2: the mean endpoint O.D.405nm of controls (control porcine plasma) was 2.29 O.D._(405nm).

A further experiment has the same target. The experiment is described as follows: SPR; 4000 RU G. m. morsitans saliva amine-coupled (10 mM sodium acetate pH 4.5) on a CM5 chip; purified Nb analytes 500 to 0.976 nM; BIAcore T200; contact 180 s, dissociation 600 s, 10 ul/min; Langmuir 1:1 fit. (Surface plasmon resonance follows binding to a sensor surface in real time, without labels.)
B3: the Kd (commonly the constant that tells how readily two partners part at equilibrium) is 0.44 nM; the koff (as a rule, the rate constant with which the complex falls apart) worked out at 0.00037 s⁻¹; the kon (usually the second-order rate constant of association) is 850000 M⁻¹ s⁻¹.
In the same order, the values of B4 are 0.54 nM, 0.00051 s⁻¹ and 930000 M⁻¹ s⁻¹.
Take B5: the Kd was 0.44 nM, the koff came out at 0.0005 s⁻¹ and the kon was determined as 1.1e+06 M⁻¹ s⁻¹.
For B6 the same measures were 0.47 nM, 0.00039 s⁻¹ and 830000 M⁻¹ s⁻¹.
In the same order, the values of B7 are 0.79 nM, 0.001 s⁻¹ and 1.3e+06 M⁻¹ s⁻¹.
The molecule B8 had an equilibrium dissociation constant (Kd) of 0.64 nM, a koff of 0.00077 s⁻¹ and a kon of 1.2e+06 M⁻¹ s⁻¹.
In the same order, the values of B9 are 4.4 nM, 0.004 s⁻¹ and 910000 M⁻¹ s⁻¹.
In the same order, the values of B10 are 18 nM, 0.017 s⁻¹ and 970000 M⁻¹ s⁻¹.
For B11 the same measures were 2.7 nM, 0.0035 s⁻¹ and 1.3e+06 M⁻¹ s⁻¹.
